In US20250277018A1 (INHIBRX BIOSCIENCES, published 2025) one finds binding result, Kd and maximal binding data, which are given here for three molecules.

For one experiment, the target named is T1, IL-4R (UniProt P24394 26-232, limits assumed).
T1 construct: also called second target
As to the kind of experiment: ELISA on coated IL-4R. As to the method: The plates were washed 3× times in 0.05% PBST (150 μL/well) and then blocked with Casein in 0.05% PBST (200 μL/well) for 2 hours at RT. The plates were washed 3× times in 0.05% PBST, and 100 μL of titrated test articles in 0.05% PBST were added to the wells of the plate (starting 100 nM, 1:3 dilutions, 11-point titration) and incubated at 4° C. for 1 hour. […] Plates were then washed again before addition of TMB substrate (100 μL/well) that was allowed to reach RT before addition to the plate. The HRP-TMB reaction was allowed to develop for approximately 10 minutes, then TMB stop buffer was added (100 μL/well) and the absorbance was measured at 450 nm on a plate reader with absorbance at 650 nm subtracted (Molecular Devices). The data were plotted and analyzed using GraphPad Prism analysis software.

The target in experiment [1] is Human serum albumin (human). As to the kind of experiment: ELISA, albumin coated, monomeric sdAb titrated. A general note: An ELISA detects its analyte on a solid surface through an enzyme-linked reagent.
Experiment [2] concerns the target Murine serum albumin (mouse). Put plainly: ELISA, albumin coated, monomeric sdAb titrated.
For experiment [3], the target named is T2, Cynomolgus monkey serum albumin (cynomolgus monkey).
T2 chain: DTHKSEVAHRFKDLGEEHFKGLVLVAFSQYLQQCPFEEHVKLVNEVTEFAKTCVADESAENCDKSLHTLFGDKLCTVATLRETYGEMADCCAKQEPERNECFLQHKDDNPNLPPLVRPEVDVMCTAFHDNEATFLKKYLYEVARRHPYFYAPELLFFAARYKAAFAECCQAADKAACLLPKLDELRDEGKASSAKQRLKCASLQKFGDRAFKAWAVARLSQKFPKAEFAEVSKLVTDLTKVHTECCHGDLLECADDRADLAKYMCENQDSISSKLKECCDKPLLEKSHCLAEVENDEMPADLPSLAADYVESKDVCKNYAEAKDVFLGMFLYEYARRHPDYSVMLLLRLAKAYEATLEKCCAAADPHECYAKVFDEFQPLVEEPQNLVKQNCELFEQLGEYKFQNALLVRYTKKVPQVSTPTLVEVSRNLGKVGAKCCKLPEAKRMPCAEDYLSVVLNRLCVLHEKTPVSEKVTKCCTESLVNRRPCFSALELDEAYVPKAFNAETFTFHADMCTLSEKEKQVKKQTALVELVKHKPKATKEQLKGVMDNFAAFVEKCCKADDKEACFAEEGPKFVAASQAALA
As to the kind of experiment: ELISA, albumin coated, monomeric sdAb titrated.

In experiment [4] the target is T3, Rat serum albumin (rat).
T3 chain: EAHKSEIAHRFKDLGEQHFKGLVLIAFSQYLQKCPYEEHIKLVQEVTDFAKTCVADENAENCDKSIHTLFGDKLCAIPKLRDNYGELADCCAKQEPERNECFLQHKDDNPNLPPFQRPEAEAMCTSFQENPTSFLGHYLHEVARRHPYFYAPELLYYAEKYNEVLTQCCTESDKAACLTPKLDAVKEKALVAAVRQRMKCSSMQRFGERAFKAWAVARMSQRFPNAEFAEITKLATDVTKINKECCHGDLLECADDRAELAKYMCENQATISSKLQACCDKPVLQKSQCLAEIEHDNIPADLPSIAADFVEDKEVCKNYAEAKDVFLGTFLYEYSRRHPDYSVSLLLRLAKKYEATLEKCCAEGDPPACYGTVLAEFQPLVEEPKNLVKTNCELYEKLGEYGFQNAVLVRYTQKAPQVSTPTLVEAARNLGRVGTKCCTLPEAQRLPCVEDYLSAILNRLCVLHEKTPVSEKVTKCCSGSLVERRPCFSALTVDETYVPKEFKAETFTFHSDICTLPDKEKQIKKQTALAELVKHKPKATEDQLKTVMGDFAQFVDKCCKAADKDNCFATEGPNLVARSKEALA
As to the kind of experiment: ELISA, albumin coated, monomeric sdAb titrated.

Experiment [5] has as its target Human serum albumin (human). As to the kind of experiment: ELISA on coated recombinant albumin, pH 7.4, anti-human IgG1 HRP; apparent affinity.
Experiment [6] has as its target Murine serum albumin (mouse). The description is as above.
The target of experiment [7] is T2, Cynomolgus monkey serum albumin. The description is as above.
The target of experiment [8] is T3, Rat serum albumin. The description is as above.

Chain of Murine serum albumin (mouse) (chain, as listed by the source): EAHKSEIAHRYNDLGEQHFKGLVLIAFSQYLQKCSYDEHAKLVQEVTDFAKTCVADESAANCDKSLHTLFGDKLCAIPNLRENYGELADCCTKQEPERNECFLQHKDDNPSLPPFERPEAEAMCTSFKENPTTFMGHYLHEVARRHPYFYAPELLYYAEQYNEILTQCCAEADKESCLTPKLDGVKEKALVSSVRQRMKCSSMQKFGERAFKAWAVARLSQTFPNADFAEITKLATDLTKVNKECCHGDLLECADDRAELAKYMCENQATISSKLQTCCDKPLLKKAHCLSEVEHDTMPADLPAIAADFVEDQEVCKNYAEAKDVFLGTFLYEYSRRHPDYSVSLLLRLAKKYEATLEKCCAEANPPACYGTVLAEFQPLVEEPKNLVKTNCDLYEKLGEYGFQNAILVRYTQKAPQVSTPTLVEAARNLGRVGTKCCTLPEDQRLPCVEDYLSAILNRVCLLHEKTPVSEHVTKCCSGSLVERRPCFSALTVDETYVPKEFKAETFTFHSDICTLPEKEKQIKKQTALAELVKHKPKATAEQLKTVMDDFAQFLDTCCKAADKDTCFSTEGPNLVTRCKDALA

B1: cx12584 (VHH)
chain: GGGGDKTHTCPPCPAPGGPSVFLFPPKPKDTLMISRTPEVTCVVVDVSHEDPEVKFNWYVDGVEVHNAKTKPREEQYNSTYRVVSVLTVLHQDWLNGKEYKCKVSNKALPAPIEKTISKAKGQPREPQVYTLPPSRDELTKNQVSLTCLVKGFYPSDIAVEWESNGQPENNYKTTPPVLDSDGSFFLYSKLTVDKSRWQQGNVFSCSVMHEALHNHYTQKSLSLSPGGGSGGGSGGGSEVQLVESGGGEVQPGGSLRLSCAASGFTFSTSGMVWVRQAPGKGLEWVSTISDDARITVYAESVKGRFTISRDNAKNTVYLQMNSLRAEDTAVYYCATYRAGSRIGSYEDYYRGQGTLVTVKP
notes: Homodimer; also called Fc Region-GS12-VHH
As to B1, the binding result with IL-4R is “no binding (tested: 100 nM (top of titration))”.

B2: cx5009, hz4A01v51 VHH-hIgG1-xELL-NNT-Fc (VHH)
VHH: EVQLVESGGGEVQPGGSLRLSCAASGFTFSTSGMVWVRQAPGKGLEWVSTISDDARITVYAESVKGRFTISRDNAKNTVYLQMNSLRAEDTAVYYCATYRAGSRIGSYEDYYRGQGTLVTVKP
notes: also called Hz4A01v51-NNT-hFc; 4A01v51-NNT-hFc
With B2, the Kd was less than 0.3 nM with Human serum albumin [1]; less than 0.3 nM with Murine serum albumin [2]; less than 0.3 nM in experiment [3]; less than 0.3 nM with Rat serum albumin [4]; approximately 0.2 nM with Human serum albumin [5]; approximately 0.2 nM with Murine serum albumin [6]. The Kd (in experiment [7]; with Rat serum albumin [8]) was approximately 0.2 nM throughout. The maximal binding (in the experiment with Human serum albumin [1]; with Murine serum albumin [2]; in experiment [3]; with Rat serum albumin [4]) was more than 90% in each case.

B3: cx12583 (VHH)
chain: GGGGDKTHTCPPCPAPGGPSVFLFPPKPKDTLMISRTPEVTCVVVDVSHEDPEVKFNWYVDGVEVHNAKTKPREEQYNSTYRVVSVLTVLHQDWLNGKEYKCKVSNKALPAPIEKTISKAKGQPREPQVYTLPPSRDELTKNQVSLTCLVKGFYPSDIAVEWESNGQPENNYKTTPPVLDSDGSFFLYSKLTVDKSRWQQGNVFSCSVMHEALHNHYTQKSLSLSPGSGGGSEVQLVESGGGEVQPGGSLRLSCAASGFTFSTSGMVWVRQAPGKGLEWVSTISDDARITVYAESVKGRFTISRDNAKNTVYLQMNSLRAEDTAVYYCATYRAGSRIGSYEDYYRGQGTLVTVKP
notes: Homodimer; also called Fc Region-GS6-VHH
B3: the binding result in the experiment with IL-4R is “no binding (tested: 100 nM (top of titration))”.
